FireProtDB (doi:10.1016/j.jmb.2009.04.075)
Where “and” joins values, the source holds several entries; their conditions need not be identical. Equal entries are not always repeated.

Details: Saccharomyces cerevisiae (strain ATCC 204508 / S288c); pH 7; 25 °C; GdnHCl; CD; Tris 20 mM; NaCl 40 mM; reversible: Yes

Chain of Cytochrome c isoform 1 wild type, P00044 (P00044 whole entry, canonical isoform): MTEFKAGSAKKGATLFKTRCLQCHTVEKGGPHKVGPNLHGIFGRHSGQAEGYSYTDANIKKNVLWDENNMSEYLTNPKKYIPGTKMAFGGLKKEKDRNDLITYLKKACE

## Cytochrome c isoform 1 wild type, P00044
  denaturant midpoint (higher = more stable): 0.49 M and 0.45 M
